Test results from publication PMC10976474.

Tests used:
[1] = target: T1, MBP-PhoB (Synechococcus sp. WH7803) (UniProt A0ACE0B1Y2); test: EMSA; details: 10 mM Tris-HCl pH 8, 50 mM KCl, 2 mM MgCl2, 5% glycerol, 0.05 mg/mL BSA, 1 mM DTT, 3 mM spermidine (described as 2x binding buffer); 25 ng DNA, 30 min at 23 C …
T1 sequence: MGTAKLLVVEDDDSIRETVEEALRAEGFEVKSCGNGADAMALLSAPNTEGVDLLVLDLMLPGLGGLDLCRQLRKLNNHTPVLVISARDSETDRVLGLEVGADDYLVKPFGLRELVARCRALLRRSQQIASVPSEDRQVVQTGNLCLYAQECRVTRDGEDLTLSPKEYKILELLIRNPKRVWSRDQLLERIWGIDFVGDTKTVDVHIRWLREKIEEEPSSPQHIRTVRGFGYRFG

[2] = target: T1, MBP-PhoB (Synechococcus sp. WH7803); test: competition; details: 10 mM Tris-HCl pH 8, 50 mM KCl, 2 mM MgCl2, 5% glycerol, 0.05 mg/mL BSA, 1 mM DTT, 3 mM spermidine (described as 2x binding buffer); 25 ng DNA, 30 min at 23 C …

Sequence | binding [1] | binding [2]
AGGGGTACTGGATCATTTCTGAAGTTGAAGAAATTGATGGTTTGGAGTTTGGGGACCCCGATTGTATGTTAAAATATCCATATGCAGTTGAACAAGGGGTCCTCGTCCCATGGCCACCATATTCAACAGAAAAAAAGATCATTGTAAGATCTTCCGAGATCAGTGTCATGGTTGATCCAGATGCTCCTCGCCTTGCAGATTATGCCAAATTGAAATCAGAAGAGACCTAATGAAATTTTACACCAGCGTACAACAAGCAGGTA (double strand) [S-PM2d133 (gp43) promoter (full-length fragment)] | binds | 
AGTTCTTCCCGAGGATTTGTTCGATGAATTCTGAACCAGTAACATCACTTTATCTCTCATTTAACCAAATCAAGTATATTCTTGATGTTATGTGGGGAACCGATCCAGTTACAGCAAAACTATTTGCAAACTCTCACGGAGTTGATGATACCGAACTGGAACGTTATCTTTCCTCTCGTTTAACTGATGGTGATATAACTAAAGTAGATTATACAATTCTTGGAGAAAAATGATTAATGTCAAACAAGAAGATAACGGCAGCTTCAC (double strand) [FAM-S-PM2d004 promoter] | binds | 
AGTTCTTCCCGAGGATTTGTTCGATGAATTCTGAACCAGTAACATCACTTTATCTCTCATTTAACCAAATCAAGTATATTCTTGATGTTATGTGGGGAACCGATCCAGTTACAGCAAAACTATTTGCAAACTCTCACGGAGTTGATGATACCGAACTGGAACGTTATCTTTCCTCTCGTTTAACTGATGGTGATATAACTAAAGTAGATTATACAATTCTTGGAGAAAAATGATTAATGTCAAACAAGAAGATAACGGCAGCTTCAC (double strand) [S-PM2d004 promoter (full-length fragment)] | binds | binds
CAGCAAGAGCGACTTCAATTTCGAAGTTATTATTGTCATGTTTGATTAAATTGTAGGGCGGGTAATTTTTATTGTGATGTGTCATCGAATCCAATCGATGAAATACATCATCCAGACCTACAAAGTGGGGGGAGTAAATATCCCAAGTGAATTTAGTCATTGCTTTCTCCTTTATTTAAGCGAGTTTGAATTAGGATCTCA (double strand) [S-PM2d130 (hsp20) promoter] | no binding | 
GTAACTTCCGACACAAATTCTTGATAGCGTTCAAAGTTTACTTTAGACATATTAGATAATAAAAGAACTGAATTTGTCAATTCGCTTTTGGCGAGTTGAAAGGTCTTCAAAAGAATCCGCTAGATCTTCCTGTTCGACAAGAGCATCAGCAGATGTCTCATCATCAACATTATACAGCTTCATCTTTGCTCTGTCAATACCAACTGTAAAACGGCGATGCATCGTAGGATCATTATATCGATTCTTCAATTGCTTCACCATAATACGACTGGATTGTTCT (double strand) [S-PM2d136 (mazG) promoter] | no binding | no binding
TACACTATCTAGGAAACTCATAAATTACCTCTTAGAAAAAACTTAATAGAGAAACTTTTTTCTCATAATCCCAACCAATACATTCTAGCACATTTTTCAATGGTTCCAAGAAAGACTTCTCAAACTGAGTCTGATAGTCAATATACTTATCAACGTTAAACTCCTTGGGAATGTCACTGAAGAATGATATGCAGTTCTCCTGAATTGGGTTTGGTGTTCTCAAG (double strand) [FAM-S-PM2d134 promoter] | binds | 
TACACTATCTAGGAAACTCATAAATTACCTCTTAGAAAAAACTTAATAGAGAAACTTTTTTCTCATAATCCCAACCAATACATTCTAGCACATTTTTCAATGGTTCCAAGAAAGACTTCTCAAACTGAGTCTGATAGTCAATATACTTATCAACGTTAAACTCCTTGGGAATGTCACTGAAGAATGATATGCAGTTCTCCTGAATTGGGTTTGGTGTTCTCAAG (double strand) [S-PM2d134 (uvsX) promoter] | binds | binds
